In US20020102651A1 (Dana-Farber, published 2002):

Target: T1, human B7-4M (B7-4 membrane form), expressed on transfected COS or CHO cells (human, UniProt Q9NZQ7 19-290)
T1 construct: also called 292
Test: FACS on B7-4M-transfected COS cells
Method: COS cells were transfected with either vector DNA (pCDNAI), or an expression plasmid containing the B7-4M cDNA. After 72 hours, the tansfected COS cells were detached by incubation in PBS containing 0.5 mM EDTA for 30 min. at 37° C.
The ability of COS cells expressing B7-4M to bind to various T cell ligands and antibodies was tested. […] The ability of COS cells expressing B7-4M to bind to IgG and murine ICOS-his fusion protein was also tested. No binding of human B7-4 to murine ICOS was detected (FIG. 9).

T1 sequence (Q9NZQ7 19-290): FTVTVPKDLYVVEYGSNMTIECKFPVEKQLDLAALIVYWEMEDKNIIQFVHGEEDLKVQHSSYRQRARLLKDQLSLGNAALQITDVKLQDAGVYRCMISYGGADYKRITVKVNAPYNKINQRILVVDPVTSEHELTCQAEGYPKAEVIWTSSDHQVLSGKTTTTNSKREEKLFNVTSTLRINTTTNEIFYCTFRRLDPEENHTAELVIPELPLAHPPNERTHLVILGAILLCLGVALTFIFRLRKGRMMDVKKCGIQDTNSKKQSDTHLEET

- binding result: no binding
B1: murine ICOS-his fusion protein (receptor, mouse, UniProt Q9WVS0 21-144, looked up)
chain: EINGSADHRMFSFHNGGVQISCKYPETVQQLKMRLFREREVLCELTKTKGSGNAVSIKNPMLCLYHLSNNSVSFFLNNPDSSQGSYYFCSLSIFDPPPFQERNLSGGYLHIYESQLCCQLKLWL
notes: not shown: his tag
